From article doi:10.1101/2025.10.04.680452 (bioRxiv, 2025) come the findings set out here.

This series deals with the molecule itself. The experiment in a line: cryo-EM structure.

Where “and” joins values, the source holds several entries; their conditions need not be identical. Equal values may be shown once.

B1: human mitochondrial group I chaperonin mHsp60, wild type (natural protein)
chain: GSAKDVKFGADARALMLQGVDLLADAVAVTMGPKGRTVIIEQSWGSPKVTKDGVTVAKSIDLKDKYKNIGAKLVQDVANNTNEEAGDGTTTATVLARSIAKEGFEKISKGANPVEIRRGVMLAVDAVIAELKKQSKPVTTPEEIAQVATISANGDKEIGNIISDAMKKVGRKGVITVKDGKTLNDELEIIEGMKFDRGYISPYFINTSKGQKCEFQDAYVLLSEKKISSIQSIVPALEIANAHRKPLVIIAEDVDGEALSTLVLNRLKVGLQVVAVKAPGFGDNRKNQLKDMAIATGGAVFGEEGLTLNLEDVQPHDLGKVGEVIVTKDDAMLLKGKGDKAQIEKRIQEIIEQLDVTTSEYEKEKLNERLAKLSDGVAVLKVGGTSDVEVNEKKDRVTDALNATRAAVEEGIVLGGGCALLRCIPALDSLTPANEDQKIGIEIIKRTLKIPAMTIAKNAGVEGSLIVEKIMQSSSEVGYDAMAGDFVNMVEKGIIDPTKVVRTALLDAAGVASLLTTAEVVVTEIPKEEKDPGMGAMGGMGGGMGGGMF
Take B1: the “stoichiometry N” value was 7 and 14.
